Where a SMILES comes first, the peptide text is derived from it. The star is where a group is joined. Cbz = O=C(OCc1ccccc1)*; CH2F = FC*
Key:
[1] = biological target: T1, A3G (Homo sapiens, UniProt Q9HC16); type: biochemical; conditions: for inhibition of A3G deaminase activity: peptide at 1 μM, FIG. 15B; for inhibition of A3G mediated deamination by A3G-derived peptides: 1-100 μM, FIG. 19B
T1 construct: Myc (C); His6 (C); made in house; host or cells: 293T cells (human embryonic kidney), transfected with pcDNA3.1-A3GMyc-His6, Ni-NTA purified
T1 sequence (Q9HC16 whole entry): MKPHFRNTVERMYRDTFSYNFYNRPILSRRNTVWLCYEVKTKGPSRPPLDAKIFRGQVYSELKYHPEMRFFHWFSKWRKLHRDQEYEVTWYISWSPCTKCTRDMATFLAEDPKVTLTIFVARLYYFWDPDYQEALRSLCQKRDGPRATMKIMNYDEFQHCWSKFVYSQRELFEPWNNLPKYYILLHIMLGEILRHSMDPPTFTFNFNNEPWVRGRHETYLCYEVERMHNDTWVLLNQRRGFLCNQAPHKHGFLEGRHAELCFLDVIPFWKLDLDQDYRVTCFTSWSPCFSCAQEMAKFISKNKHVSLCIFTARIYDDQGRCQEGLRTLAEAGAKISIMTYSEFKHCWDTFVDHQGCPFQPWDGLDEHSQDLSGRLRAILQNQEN
Protocol: Deaminase activity of purified enzyme and virion-associated A3G protein was examined as previously described. Briefly, A3G deamination reactions were performed in a total volume of 10 μl in 25 mM Tris, pH 7.0, and 0.01-1 fmol single-stranded (ss) deoxyoligonucleotide substrate at 37° C. The reaction was terminated by heating to 95° C. for 5 min. One μl of the reaction mixture was used for PCR amplification performed in 20 μl buffer S, using the following program: 1 cycle at 95° C. for 3 min, followed by 30 cycles of annealing at 61° C. for 30 s and denaturing at 94° C. for 30 s. Aliquots of the PCR products (10 μl) were incubated with Eco147I restriction enzyme for 1 h at 37° C. Completion of the restriction reaction was verified by using positive-control substrate containing CCU instead of CCC. Restriction-reaction products were loaded onto 14% gels and separated by PAGE. Gels were stained with SYBR gold nucleic acid stain diluted 1:10,000 in 0.5× Tris-Borate-EDTA buffer (TBE, pH 7.8), visualized by UV light (312 nm), captured by an Olympus C-5050 charge-coupled device (CCD) camera and analyzed by optical density (OD) scan using the TINA2.0 densitometry software. Assessment of A3G entrapped in virions was carried out with concentrated viruses stocks of 3-5 μg of p24/μl) suspended in PBS containing Triton X-100 at final concentration of 0.1% (vv) and 50 μg/ml RNase A (Sigma-Aldrich). Deamination reactions were incubated for 1 h at 37° C.
A panel of 46 HIV-1 Vif-derived 15-mer peptides (obtained through the NIH AIDS Research and Reference Reagent Program) were screened for inhibition of purified A3G-His6 catalytic activity in a standard cytidine deamination assay. […] A fluorescein-conjugated peptide (kindly provided by Dr. Assaf Friedler) was used to assess the peptide uptake by H9 cells.

[2] = test system: A3G; assay: shRNA-mediated knockdown of A3G expression in H9 cells; type: cell-based, human; conditions: Western blot, FIG. 8F
Protocol: (§1) For short hairpin (sh) RNA expression, the following puromycin resistance-encoding vectors were used: A3G-specific pLKO.1.shA3G (TRCN0000052188, clone NM_021822.1-398s1 c1; Sigma-Aldrich), having the nucleic acid sequence 5′-CCGG-[…]-CTCGAG-[…]-TTTTTG-3′, as denoted by SEQ ID NO. 92, and the unrelated control cyprinid herpes virus 3 (CyHV3)-specific pLKO.1.shCtr1. […]. Culture supernatants were collected 48 h post transfection, centrifuged for 10 min at 4,000 rpm to remove cell debris and then for 1 h at 35,000 rpm using a swing SW-41 rotor (Beckman). H9 cells were transduced with the concentrated vectors by spinoculation for 1 h at 1,000 rpm and selected with puromycin (1 μg ml^−1) for 3-10 days post transduction.
Transfected or infected cells were harvested, washed once in PBS, re-suspended in SDS-gel loading buffer and boiled for 10 min. Samples of 5×10^4 cells were analyzed by SDS-12% polyacrylamide gel electrophoresis (SDS-PAGE), followed by transfer of the proteins to polyvinylidene fluoride (PVDF) membrane. HIV-1 proteins were detected by using rabbit anti-Vif and monoclonal anti-Ca-p24 antibodies. A3G protein was identified by rabbit polyclonal anti-A3G.

[3] = test system: H9 cells; assay: γ-H2AX / RPA foci after IR in A3G knockdown H9 cells; type: cell-based, human
Protocol: as §1
(§2) Cells were irradiated by exposure to a ^60Co source producing 1 Gy sec^−1 γ-radiation, or mock-irradiated. Following incubation at 37° C., cells were fixed, attached to glass slides by cytospin, permeabilized with detergent and blocked with 10% normal goat serum. Cells were then incubated with A3G-specific rabbit polyclonal antibody, γ-H2AX-specific monoclonal antibody, or RPA32-specific monoclonal antibody, followed by incubation with goat anti-rabbit Cy-5-conjugated antibody, goat anti-mouse Cy-2-conjugated antibody and DAPI. Slides were mounted and examined by Zeiss LSM 710 confocal microscope. Data were collected sequentially using a ×63 objective with 7-fold averaging at a resolution of […], Z-sections were obtained using an optical slice of less than 1 μm. Data were analyzed with the Zen 2009.

[4] = test system: H9 cells; assay: Cell cycle analysis following IR; type: cell-based, human; conditions: H9-shA3G cells, 4 Gy, 20 hours, FIG. 8J
Protocol: PBMC, H9 or puromycin-resistant H9-shRNA cells were irradiated (4 Gy) or mock-irradiated. Following 20 h incubation at 37° C., cells were fixed with methanol for 1 h at −20° C., washed with phosphate buffered saline (PBS), treated with RNase A (50 μg ml ^−1) and stained with PI (5 μg ml^−1). The total cellular DNA content was determined by flow cytometry using FACScan. Cell cycle data were analyzed by the CellQuest Pro software and include 10,000 events gated on singlet cells.

[5] = test system: H9 cells; assay: DSB repair (γ-H2AX staining) in irradiated H9 cells pre-incubated with Vif peptides; type: cell-based, human; conditions: 2 h pre-incubation with 100 μM peptide, 4 Gy IR, stained after 8 h
Protocol: as §2
A panel of 46 HIV-1 Vif-derived 15-mer peptides (obtained through the NIH AIDS Research and Reference Reagent Program) were screened for inhibition of purified A3G-His6 catalytic activity in a standard cytidine deamination assay. The inhibitory peptide Vif25-39 corresponds to amino acids 25-39 in HIV-1 HXBII Vif. A fluorescein-conjugated peptide (kindly provided by Dr. Assaf Friedler) was used to assess the peptide uptake by H9 cells. […]

With IVWQVDRMRIRTWKS [Vif9-23] the “inhibition of A3G deaminase activity” value [1] was “inhibited”.

In the case of “IHLYYFDCF (Viral - Vif peptide) [SEQ ID NO. 71]”, the “inhibition of A3G mediated deamination by short Vif- and A3F-derived peptides” value ([1]; 0.001 to 10 μM, FIG. 19A) is reported as “distinct inhibitory pattern”.

In the case of “WVRGRHETYLCYEVE (listed as Homo sapiens) [SEQ ID NO. 83]”, the “inhibition of A3G mediated deamination by A3G-derived peptides” value [1] is reported as “marked inhibitory effect”.

In the case of “DLADQLIHLYYFDCF (Viral - Vif peptide) [Vif101-115]”, the “inhibition of A3G deaminase activity” value [1] is reported as “inhibited”.

For “5′-CCGG-GCCAGGTGTATTCCGAACTTA-CTCGAG-TAAGTTCGGAATACACCTGGC-TTTTTG-3′ (DNA CCGGGCCAGGTGTATTCCGAACTTACTCGAGTAAGTTCGGAATACACCTGGCTTTTTG; expressed or natural sequence) [shA3G, A3G-specific shRNA vector TRCN0000052188]”, the “reduction of A3G expression compared to H9-shCtr1 cells” value [2] was 70-80%, the “RPA recruitment to damage-induced foci following IR” value ([3]; H9-shA3G cells, 4 Gy, 2 h, FIG. 10A) was “did not form such foci” and the “γ-H2AX foci in the hours following IR” value ([3]; H9-shA3G cells, 4 Gy, up to 8 hours, FIG. 8G) was “did not decrease”. For the same compound, the “G2M arrest following IR” value [4] was “did not undergo G2M arrest”.

For “DCFSESAIRNAILGH (Viral - Vif peptide) [Vif113-127]”, the “inhibition of A3G deaminase activity” value [1] was “inhibited”.

`COC(=O)C[C@H](NC(=O)[C@H](C)NC(=O)[C@@H](NC(=O)OCc1ccccc1)C(C)C)C(=O)CF` [z-VAD-fmk, reference compound] (Cbz-Val-Ala-Asp(OMe)-CH2F) was tested, and the “DSB incidence in the presence of caspase inhibitor” value ([3]; 20 μM, 1 hour pre-incubation, γ-H2AX 6 hours after IR, FIG. 8H) was “comparable with cells treated with mock”.

For “RMHNDTWVLLNQRRG (listed as Homo sapiens) [SEQ ID NO. 84]”, the “inhibition of A3G mediated deamination by A3G-derived peptides” value [1] was “marked inhibitory effect”.

For “WRKKRYSTQVDPDLA (Viral - Vif peptide) [Vif89-103, control peptide]”, the “inhibition of A3G-mediated deamination” value ([1]; peptide at 100 μM) was “did not inhibit” and the “cells containing DSBs” value [5] was under 8%.

With “GWFYRHHYESTHPRI (Viral - Vif peptide) [Vif37-51]” the “inhibition of A3G deaminase activity” value [1] was “inhibited”.
